Data: US20260234700, “MUTANT CAS12J ENDONUCLEASES” (University of Copenhagen, published 2026)

Biological target: T1, CasΦ3 (Cas12j-3) (Biggiephage)
T1 chain: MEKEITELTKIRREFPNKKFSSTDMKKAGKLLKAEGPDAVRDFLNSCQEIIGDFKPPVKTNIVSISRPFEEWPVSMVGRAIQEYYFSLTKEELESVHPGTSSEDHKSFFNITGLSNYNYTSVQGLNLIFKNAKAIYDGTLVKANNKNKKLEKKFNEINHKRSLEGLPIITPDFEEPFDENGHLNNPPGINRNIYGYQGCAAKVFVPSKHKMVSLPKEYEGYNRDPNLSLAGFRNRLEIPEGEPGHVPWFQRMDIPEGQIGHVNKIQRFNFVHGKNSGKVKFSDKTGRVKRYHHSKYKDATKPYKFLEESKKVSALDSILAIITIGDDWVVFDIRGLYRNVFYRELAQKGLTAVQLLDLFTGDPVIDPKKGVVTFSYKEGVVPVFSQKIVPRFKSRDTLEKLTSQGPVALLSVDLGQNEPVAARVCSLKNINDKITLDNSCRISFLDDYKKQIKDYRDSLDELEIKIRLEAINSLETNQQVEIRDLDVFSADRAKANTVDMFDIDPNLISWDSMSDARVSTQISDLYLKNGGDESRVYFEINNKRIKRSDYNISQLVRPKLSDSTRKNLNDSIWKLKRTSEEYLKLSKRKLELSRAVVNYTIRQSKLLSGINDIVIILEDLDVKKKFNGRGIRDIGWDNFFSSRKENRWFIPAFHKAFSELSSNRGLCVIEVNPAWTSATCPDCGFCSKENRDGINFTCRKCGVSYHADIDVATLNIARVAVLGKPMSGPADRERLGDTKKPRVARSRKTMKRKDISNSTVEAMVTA
Test: structure; cryo-EM 2.7 Å R-loop product complex; PAM TTC; Ni2+
Conditions: tags: C-terminal His6
Experimental: For the preparation of the Cryo-EM sample, Ni²⁺ was used as a catalytic ion instead of Mg²⁺ due to the higher yield obtained with this metal. CasΦ3 RNP was prepared as described before. 25 nmol of RNP and 37 nmol of unlabeled dsDNA substrate were incubated in 25 ml of MonoQ A buffer (20 mM HEPES pH7.5, 200 mM KCl, 1 mM NiSO₄, 0.5 mM TCEP) for 2 h at 20° C. to allow DNA cleavage. The product of the reaction was loaded in a MonoQ column equilibrated with MonoQ A buffer, and CasΦ3 R-loop complex was separated from the RNP and the unbound DNA substrate by a salt gradient elution using MonoQ B buffer (20 mM HEPES pH7.5, 2 M KCl, 1 mM NiSO₄, 0.5 mM TCEP). CasΦ3 R-loop eluted at 16-20% of MonoQ buffer B […]. […] 2.5 μL of freshly purified CasΦ3 R-loop complex (Absorbance_{260 nm} of ~1.6) was applied to UltrAuFoil 300 mesh R0.6/1.0 holey grids (Quantifoil), glow-discharged for 60 s at 10 mA (Leica EM ACE200), and plunge-frozen in liquid ethane (pre-cooled with liquid nitrogen) using a Vitrobot Mark IV (FEI, Thermo Fisher Scientific) using the next conditions: blotting time 3 s, 100% humidity and 4° C.
We reconstituted and characterized a functional CasΦ3-crRNA complex (FIG. 5) and determined the structure of the enzyme after severing a target dsDNA by cryo-EM (FIG. 1). […]

B1: CasΦ3 crRNA ; target dsDNA with TTC PAM (NT/T strands) (ssRNA ; dsDNA)
RNA: UAUUGAUUGCCCAGUACGCUGGGACAGCUGGUAAUGGGAUACCUU
DNA 1: GTAATTCAGCTGGTAATGGGATACCTTGTGCTACAGC
DNA 2: GCTGTAGCACAAGGTATCCCATTACCAGCTGAATTAC
B1: binds.
